The results in this text go back to IntAct's records for PubMed 21382479.

The labels stand for the following.
B1: Caveolin-1 (Homo sapiens), Q03135 (parent)
chain: MSGGKYVDSEGHLYTVPIREQGNIYKPNNKAMADELSEKQVYDAHTKEIDLVNRDPKHLNDDVVKIDFEDVIAEPEGTHSFDGIWKASFTTFTVTKYWFYRLLSALFGIPMALIWGIYFAILSFLHIWAVVPCIKSFLIEIQCISRVYSIYVHTVCDPLFEAVGKIFSNVRINLQKEI
partner: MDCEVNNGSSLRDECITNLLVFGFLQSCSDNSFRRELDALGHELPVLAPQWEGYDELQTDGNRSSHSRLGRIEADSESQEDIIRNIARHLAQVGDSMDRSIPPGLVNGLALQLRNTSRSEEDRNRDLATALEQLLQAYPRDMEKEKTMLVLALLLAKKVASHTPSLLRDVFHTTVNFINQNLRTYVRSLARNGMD

In this assay the parent is B1. The conditions noted are these: with bid_human BID.
As to MSGGKYVDSEGHLFTVPIREQGNIYKPNNKAMADELSEKQVYDAHTKEIDLVNRDPKHLNDDVVKIDFEDVIAEPEGTHSFDGIWKASFTTFTVTKYWFYRLLSALFGIPMALIWGIYFAILSFLHIWAVVPCIKSFLIEIQCISRVYSIYVHTVCDPLFEAVGKIFSNVRINLQKEI, the “effect of a mutation on the interaction” value is given as “disrupting interaction”.
